The record followed here is patent US20200317768A1 (published 2020).

The target of assay [1] is T1, human FcγRIIaH extracellular domain, C-terminal His-tag (human, UniProt P12318 34-217).
T1 construct: also called human FcγRIIa (type H); FcgRIIaH; not shown: His-tag added to the C-terminus
T1 sequence: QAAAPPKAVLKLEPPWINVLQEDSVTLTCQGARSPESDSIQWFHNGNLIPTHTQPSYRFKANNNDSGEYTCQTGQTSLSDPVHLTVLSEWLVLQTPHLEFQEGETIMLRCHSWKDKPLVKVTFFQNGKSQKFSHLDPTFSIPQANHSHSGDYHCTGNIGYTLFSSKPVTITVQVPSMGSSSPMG
Put plainly: SPR; KD of SG1 divided by KD of variant. (SPR reads the build-up and loss of mass on a sensor chip optically.)

For assay [2], the target named is T2, human FcγRIIaR extracellular domain, C-terminal His-tag (human, UniProt P12318 34-217).
T2 construct: also called human FcγRIIa (type R); FcgRIIaR; not shown: His-tag added to the C-terminus
T2 chain: T1 sequence with H134R
Description: SPR; KD of SG1 divided by KD of variant.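 Further: relative to parent M103205H795-SG1 carrying the SG1 human heavy chain constant region.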

Assay [3] addresses T3, human FcγRIIIaV extracellular domain, C-terminal His-tag (human, UniProt P08637 17-208).
T3 construct: also called FcgRIIIaV; not shown: His-tag added to the C-terminus
Put plainly: SPR; KD of SG1 divided by KD of variant.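 Further: relative to parent M103205H795-SG1 carrying the SG1 human heavy chain constant region.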

Assay [4] concerns the target T4, human FcγRIIb extracellular domain, C-terminal His-tag (human, UniProt P31994 43-217).
T4 construct: also called FcgRIIb; not shown: His-tag added to the C-terminus
T4 sequence: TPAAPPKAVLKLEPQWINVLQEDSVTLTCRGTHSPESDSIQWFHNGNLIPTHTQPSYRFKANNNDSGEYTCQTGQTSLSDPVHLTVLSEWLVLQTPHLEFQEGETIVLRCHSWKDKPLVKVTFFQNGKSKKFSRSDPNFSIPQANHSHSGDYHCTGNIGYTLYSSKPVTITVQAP
Put plainly: SPR; KD of SG1 divided by KD of variant.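 Further: relative to parent M103205H795-SG1 carrying the SG1 human heavy chain constant region.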

In assay [5] the target is T1, human FcγRIIaH extracellular domain, …. Put plainly: SPR (BIACORE), antibody captured, soluble FcgR as analyte, 25C.
Assay [6] addresses T2, human FcγRIIaR extracellular domain, …. The assay is described as above.
Assay [7] deals with T3, human FcγRIIIaV extracellular domain, …. The assay is described as above.
In assay [8] the target is T4, human FcγRIIb extracellular domain, …. Described as above.

What is called Kd is the equilibrium constant for the complex coming apart. A low value points to higher affinity.

Substitutions are numbered along the chain they refer to. Numbers in names are those of the source.

T3 sequence (P08637 17-208 F176V): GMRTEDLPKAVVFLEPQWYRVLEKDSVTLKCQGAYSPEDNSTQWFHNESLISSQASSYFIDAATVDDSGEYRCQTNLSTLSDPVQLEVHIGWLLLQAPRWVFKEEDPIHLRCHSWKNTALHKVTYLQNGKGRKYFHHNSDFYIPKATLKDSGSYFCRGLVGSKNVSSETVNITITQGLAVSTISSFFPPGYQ

B1: MS103240H795-TT25/M103202L1045-SK1 (antibody, human IgG1, kappa)
heavy: QVQLVESGGGLVQPGGSLRLSCAVSGIDLSHDDISWVRQAPGKGLEWVSIISYAGSTYYASWAKGRLTISKDTSKNQVVLTMTNMDPVDTATYYCARGVPAYSHGGDLWGQGTLVTVSSASTKGPSVFPLAPSSKSTSGGTAALGCLVKDYFPEPVTVSWNSGALTSGVHTFPAVLQSSGLYSLSSVVTVPSSSLGTQTYICNVNHKPSNTKVDKKVEPKSCDKTHTCPPCPAPELLGGDSVFLFPPKPKDVLMISRTPEVTCVVVDVAHEDPEVKFNWYVDGVEVHNAKTKPREEQYNSTYRVVSVLPVLHRDWLNGKEYKCKVSNKALPKPIEKTISKAKGQPREPQVYTLPPSREEMTKNQVSLTCLVKGFYPSDIAVEWESNGQPENNYKTTPPVLDSDGSFFLYSKLTVKKSRWQQGNVFSCSVMHEALHNHYTQKSLSLSP
light: DIVMTQSPATLSLSPGERATLSCTTSQSVYHENWLSWFQQKPGQPPKLLIYWASTLAYGVPSRFSGSGSGTDFTLTISSLQPEDAATYYCAGGYGGGRYAFGQGTKVEIKRTVAAPSVFIFPPSDEQLKSGTASVVCLLNNFYPREAKVQWKVDNALQSGNSQESVTEQDSKDSTYSLSSTLTLSKADYEKHKVYACEVTHQGLSSPVTKSFNRGEC
notes: CH = SG1 with P238D/T250V/S267A/T307P/Q311R/A330K/D413K (EU numbering)
For the molecule B1, the “KD fold (SG1 = 1)” value was 0.034 fold in assay [1], 0.08 fold in assay [2], 0.006 fold in assay [3] and 5.8 fold in assay [4]. Further, the Kd in assay [5] was determined as 22 µM; in assay [6] it was 13 µM; in assay [7], 140 µM; in assay [8], 1 µM.

B2: MS103240H795-TT30/M103202L1045-SK1 (antibody, human IgG1, kappa)
heavy: B1 heavy with V266I, P345R, K415D
light: B1 light
notes: CH = SG1 with P238D/T250V/V264I/S267A/T307P/Q311R/A330K/P343R (EU numbering)
With B2, the “KD fold (SG1 = 1)” value in assay [1] amounted to 0.005 fold; in assay [2] it was 0.08 fold; in assay [3] it was 0.012 fold; in assay [4], 10.2 fold. Also, the Kd in assay [5] was found to be 150 µM; in assay [6], 14 µM; in assay [7], 66 µM; in assay [8] it was 0.57 µM.

B3: MS103240H795-TT32/M103202L1045-SK1 (antibody, human IgG1, kappa)
heavy: B1 heavy with L236Y, V266I, A269S, P345R, K415D
light: B1 light
notes: CH = SG1 with L234Y/P238D/T250V/V264I/T307P/Q311R/A330K/P343R (EU numbering)
For the molecule B3, the “KD fold (SG1 = 1)” value in assay [1] came to 0.015 fold; in assay [2] it was 0.09 fold; in assay [3], 0.007 fold; in assay [4], 14.5 fold. In addition, the Kd in assay [5] is 50 µM; in assay [6] it was 12 µM; in assay [7], 110 µM; in assay [8], 0.4 µM.

B4: MS103240H795-TT28/M103202L1045-SK1 (antibody, human IgG1, kappa)
heavy: B1 heavy with L236Y, P345R, K415D
light: B1 light
notes: CH = SG1 with L234Y/P238D/T250V/S267A/T307P/Q311R/A330K/P343R (EU numbering)
On to B4, for which the “KD fold (SG1 = 1)” value in assay [1] was determined as 0.016 fold; in assay [2], 0.14 fold; in assay [3], 0.01 fold; in assay [4] it was 6.8 fold. In addition, the Kd in assay [5] stood at 48 µM; in assay [6], 7.7 µM; in assay [7] it was 82 µM; in assay [8], 0.85 µM.

B5: MS103240H795-TT33/M103202L1045-SK1 (antibody, human IgG1, kappa)
heavy: B1 heavy with L236Y, V266I, A269S
light: B1 light
notes: CH = SG1 with L234Y/P238D/T250V/V264I/T307P/Q311R/A330K/D413K (EU numbering)
Turning to B5, the “KD fold (SG1 = 1)” value in assay [1] worked out at 0.018 fold; in assay [2] it was 0.09 fold; in assay [3], 0.002 fold; in assay [4], 16.1 fold. Further, the dissociation constant (Kd) in assay [5] came out at 42 µM; in assay [6] it was 12 µM; in assay [7], 440 µM; in assay [8] it was 0.36 µM.

B6: MS103240H795-TT31/M103202L1045-SK1 (antibody, human IgG1, kappa)
heavy: B1 heavy with V266I
light: B1 light
notes: CH = SG1 with P238D/T250V/V264I/S267A/T307P/Q311R/A330K/D413K (EU numbering)
For the molecule B6, the “KD fold (SG1 = 1)” value amounted to 0.007 fold in assay [1], 0.06 fold in assay [2], 0.003 fold in assay [3] and 10.4 fold in assay [4]. Moreover, the Kd is 110 µM in assay [5], 19 µM in assay [6], 290 µM in assay [7] and 0.56 µM in assay [8].

B7: MS103240H795-TT27/M103202L1045-SK1 (antibody, human IgG1, kappa)
heavy: B1 heavy with L236Y, A269S
light: B1 light
notes: CH = SG1 with L234Y/P238D/T250V/T307P/Q311R/A330K/D413K (EU numbering)
For B7, the “KD fold (SG1 = 1)” value came out at 0.014 fold in assay [1], 0.08 fold in assay [2], 0.006 fold in assay [3] and 7.1 fold in assay [4]. Further, the Kd in assay [5] was determined as 52 µM; in assay [6], 14 µM; in assay [7] it was 130 µM; in assay [8], 0.82 µM.

B8: MS103240H795-TT29/M103202L1045-SK1 (antibody, human IgG1, kappa)
heavy: B1 heavy with L236Y
light: B1 light
notes: CH = SG1 with L234Y/P238D/T250V/S267A/T307P/Q311R/A330K/D413K (EU numbering)
Turning to B8, the “KD fold (SG1 = 1)” value in assay [1] stood at 0.02 fold; in assay [2], 0.15 fold; in assay [3], 0.009 fold; in assay [4], 7.2 fold. In addition, the Kd in assay [5] was 37 µM; in assay [6] it was 7.5 µM; in assay [7] it was 89 µM; in assay [8], 0.81 µM.

B9: MS103240H795-TT35/M103202L1045-SK1 (antibody, human IgG1, kappa)
heavy: B1 heavy with L236Y, V266I
light: B1 light
notes: CH = SG1 with L234Y/P238D/T250V/V264I/S267A/T307P/Q311R/A330K/D413K (EU numbering)
For the molecule B9, the “KD fold (SG1 = 1)” value in assay [1] is 0.03 fold; in assay [2] it was 0.12 fold; in assay [3], 0.004 fold; in assay [4], 13.5 fold. Also, the Kd in assay [5] worked out at 25 µM; in assay [6], 9 µM; in assay [7], 180 µM; in assay [8], 0.43 µM.

B10: MS103240H795-TT26/M103202L1045-SK1 (antibody, human IgG1, kappa)
heavy: B1 heavy with L236Y, A269S, P345R, K415D
light: B1 light
notes: CH = SG1 with L234Y/P238D/T250V/T307P/Q311R/A330K/P343R (EU numbering)
With B10, the “KD fold (SG1 = 1)” value in assay [1] was 0.011 fold; in assay [2] it was 0.05 fold; in assay [3], 0.004 fold; in assay [4], 5.3 fold. The Kd in assay [5] came to 69 µM; in assay [6], 21 µM; in assay [7] it was 200 µM; in assay [8], 1.1 µM.

B11: MS103240H795-TT34/M103202L1045-SK1 (antibody, human IgG1, kappa)
heavy: B1 heavy with L236Y, V266I, P345R, K415D
light: B1 light
notes: CH = SG1 with L234Y/P238D/T250V/V264I/S267A/T307P/Q311R/A330K/P343R (EU numbering)
For B11, the “KD fold (SG1 = 1)” value in assay [1] was 0.034 fold; in assay [2], 0.12 fold; in assay [3], 0.008 fold; in assay [4], 11.8 fold. In addition, the Kd in assay [5] was determined as 22 µM; in assay [6], 8.9 µM; in assay [7], 96 µM; in assay [8] it was 0.49 µM.
